Results as given in patent US20160068860A1, “TRANSGENIC PLANTS” (CONSEJO SUPERIOR DE INVESTIGACIONES CIENTIFICAS (CSIC), priority 2013, published 2016).

B1: PYL4A194T: AtPYL4 ABA receptor mutant polypeptide with A194T substitution (SEQ ID NO. 60; nucleic acid SEQ ID NO: 55); also over-expressed in plants (protein, listed as Arabidopsis thaliana)
chain: MLAVHRPSSAVSDGDSVQIPMMIASFQKRFPSLSRDSTAARFHTHEVGPNQCCSAVIQEISAPISTVWSVVRRFDNPQAYKHFLKSCSVIGGDGDNVGSLRQVHVVSGLPAASSTERLDILDDERHVISFSVVGGDHRLSNYRSVTTLHPSPISGTVVVESYVVDVPPGNTKEETCDFVDVIVRCNLQSLAKITENTAAESKKKMSL

Assays:
[1] = test system: Arabidopsis thaliana plants; experiment: Whole-rosette stomatal conductance and transpiration measurements; format: in vivo; conditions: basal conditions; for stomatal conductance (Gst) and transpiration versus non-transformed Col: OE plants
Method: The Arabidopsis whole-rosette gas exchange measurement device, plant growth practice and custom written program to calculate transpiration and Gst for water vapour have been described previously (Kollist et al. 2007; Vahisalu et al., 2008). For gas-exchange experiments, 25-28-d-old plants (rosette area 6-18 cm2) were used. Until measurements, plants were grown in growth chambers (AR-66LX and AR-22L, Percival Scientific, IA, USA) at 12/12 photoperiod, 23/18° C. temperature, air relative humidity of 70-80% and 150 μmol m-2 s-1 light. During gas exchange measurements, temperature, air relatively humidity, photoperiod and light in the cuvettes were kept as similar as possible to the
values in growth chambers. Photographs of plants were taken before and after the experiment and rosette leaf area was calculated using the NIH software ImageJ 1.37v. Leaf area values for the intermediary experimental period were calculated using linear regression between starting and final leaf area.

[2] = test system: Arabidopsis thaliana plants; experiment: Stomatal aperture by whole leaf imaging; format: in vivo; conditions: OE plants; steady-state conditions
Method: 2-3 weeks-old seedlings grown in MS plates were used for water-loss assays. Four seedlings per genotype with similar growth, three independent experiments, were submitted to the drying atmosphere of a flow laminar hood. Kinetic analysis of waterloss was performed and represented as the percentage of initial fresh weight loss at each scored time point. Stomatal aperture measurements were done in leaves of 5-week-old plants grown under greenhouse conditions using whole leaf imaging (Chitrakar and Melotto, 2010). Staining of whole leaves with propidium iodide was conducted and the aperture of 30-40 stomata (ratio width/length, two independent experiments) was measured using a Leica TCS-SL confocal microscope.

HAB1 = experiment: BiFC assay with HAB1 in N. benthamiana leaves; format: cell-based; conditions: no exogenous ABA
Method: (§1) Experiments were performed basically as described by Voinnet et al., (2003). The different binary vectors described above where introduced into Agrobacterium tumefaciens C58C1 (pGV2260) (Deblaere et al., 1985) by electroporation and transformed cells were selected in LB plates supplemented with kanamycin (50 μg/ml). Then, they were grown in liquid LB medium to late exponential phase and cells were harvested by centrifugation and resuspended in 10 mM morpholinoethanesulphonic (MES) acid-KOH pH 5.6 containing 10 mM MgCl2 and […] acetosyringone to an OD600 nm of 1. These cells were mixed with an equal volume of Agrobacterium C58C1 (pCH32 35S:p19) expressing the silencing suppressor p19 of tomato bushy stunt virus (Voinnet et al., 2003) so that the final density of Agrobacterium solution was about 1. Bacteria were incubated for 3 h at room temperature and then injected into young fully expanded leaves of 4-week-old N. benthamiana plants. Leaves were examined after 3-4 days under a Leica TCS-SL confocal microscope and laser scanning confocal imaging system. Quantification of fluorescent protein signal was done as described (Gampala et al., 2007) using the National Institutes of Health (NIH) Image software ImageJ v1.37. […]

RAB18 = experiment: Quantitative RT-PCR of ABA-responsive gene RAB18 in OE plants; format: in vivo, Arabidopsis thaliana
Method: (§2) ABA treatment, RNA extraction and quantitative RT-PCR amplifications were performed as previously described (Saez et al., 2004).

RD29B = experiment: Quantitative RT-PCR of ABA-responsive gene RD29B in OE plants; format: in vivo, Arabidopsis thaliana
Method: as §2

PP2CA [3] = target: T1, PP2CA (Arabidopsis thaliana, UniProt O80920+P49598, A194T); experiment: In vitro reconstitution: PP2CA-mediated dephosphorylation of OST1, ΔC-ABF2, ΔC-ABI5, SLAC1 1-186; format: biochemical; parameters: made in house; host or cells: E. coli BL21 (DE3)
Method: Phosphatase activity was measured using as a substrate either pNPP or phosphorylated ΔC-ABF2, ΔC-ABI5 and SLAC11-186 proteins. For the pNPP substrate, assays were performed in a 100 μl solution containing 25 mM Tris-HCl pH 7.5, 2 mM MnCl2 and 5 mM pNPP. Assays contained 2 μM phosphatase (PP2CA or HAB1), 4 μM receptor and the indicated concentrations of ABA. Phosphatase activity was recorded with a ViktorX5 reader at 405 nm every 60 seconds over 30 minutes and the activity obtained after 30 minutes is indicated in the graphics. In order to obtain phosphorylated ΔCABF2, ΔC-ABI5 and SLAC11-186 proteins, OST1 phosphorylation assays were done basically as described previously (Dupeux et al., 2011 b). ΔC-ABF2 and SLAC11-186 N-terminal fragments were prepared as described (Antoni et al., 2012; Vahisalu et al., 2010). ΔC-ABI5 recombinant protein (amino acid residues 1-200, containing the C1, C2 and C3 target sites of ABA-activated SnRK2s) was expressed in the pETM11 vector as described above. The reaction mixture containing the OST1 kinase and either ΔCABF2, ΔC-ABI5 or SLAC11-186 recombinant proteins were incubated for 50 min at room temperature in 30 μl of kinase buffer: 20 mM Tris-HCl pH 7.8, 20 mM MgCl2, 2 mM MnCl2, and 3.5 μCi of γ-32ATP (3000 Ci/mmol). Thus, OST1 was autophosphorylated and in turn it phosphorylated ΔC-ABF2, ΔC-ABI5 and SLAC11-186 proteins. […] The reaction was stopped by adding Laemmli buffer and the proteins were separated by SDS-PAGE using an 8% acrylamide gel and transferred to an Immobilon-P membrane (Millipore). Radioactivity was detected and quantified using a Phosphorimage system (FLA5100, Fujifilm). After scanning, the same membrane was used for Ponceau staining. The data presented are averages of at least three independent experiments.
Target sequence in this assay (P49598 whole entry, one chain of several): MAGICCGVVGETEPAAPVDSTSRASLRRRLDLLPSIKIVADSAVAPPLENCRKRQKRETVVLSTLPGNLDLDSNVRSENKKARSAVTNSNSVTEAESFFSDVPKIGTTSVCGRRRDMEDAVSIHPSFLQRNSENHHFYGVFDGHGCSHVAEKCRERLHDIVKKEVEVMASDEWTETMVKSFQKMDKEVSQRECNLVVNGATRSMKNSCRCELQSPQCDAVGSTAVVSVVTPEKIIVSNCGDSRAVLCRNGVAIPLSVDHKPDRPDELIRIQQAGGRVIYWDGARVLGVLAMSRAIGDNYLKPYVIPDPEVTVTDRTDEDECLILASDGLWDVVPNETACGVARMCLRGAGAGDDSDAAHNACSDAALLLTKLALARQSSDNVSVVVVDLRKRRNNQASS

PP2CA [4] = target: T1, PP2CA; experiment: BiFC assay with PP2CA in N. benthamiana leaves; format: cell-based; parameters: expressed in transfected cells; host or cells: N. benthamiana leaf epidermal cells (Agroinfiltration); conditions: no exogenous ABA; compared to PYL4
Method: as §1
Target sequence in this assay (P49598 whole entry, one chain of several): as above

[5] = absence of exogenous ABA treatment
[6] = 30 μM ABA, 1:10 phosphatase:receptor

| Molecule | stomatal conductance (Gst) and transpiration versus non-transformed Col [1] | stomatal aperture [2] | interaction with HAB1 (BiFC), PYL4 versus PYL4A194T (HAB1) | induction of RAB18 after ABA-treatment (RAB18; 10 μM ABA for 3 h) | expression of RAB18 up-regulated compared to non-transformed plants (RAB18; [5]) [fold] | induction of RD29B after ABA-treatment (RD29B; 10 μM ABA for 3 h) | expression of RD29B up-regulated compared to non-transformed plants (RD29B; [5]) [fold] | stomatal conductance (Gst) versus PYL4 OE plants [1] | inhibition of dephosphorylation by PP2CA of ΔC-ABI5 and SLAC1 1-186 (PP2CA [3]; [6]) | inhibition of dephosphorylation of ΔC-ABF2 (PP2CA [3]; [6]) | inhibition of dephosphorylation of ΔC-ABF2, ΔC-ABI5 and SLAC1 1-186, better than PYL4 (PP2CA [3]; 0.5-1 μM ABA, 1:1 phosphatase:receptor ratio) | inhibition of dephosphorylation of PP2CA targets, difference to PYL4 (PP2CA [3]; absence of ABA, 1:10 phosphatase:receptor) | protection of OST1 phosphorylation compared to PYL4 (PP2CA [3]; low ABA concentrations, 1:1 phosphatase:receptor ratio) | relative fluorescence emission of interaction with PP2CA (PP2CA [4]) |
| --- | --- | --- | --- | --- | --- | --- | --- | --- | --- | --- | --- | --- | --- | --- |
| PYL4: AtPYL4 wild type ABA receptor polypeptide (SEQ ID NO:3, At2g38310) [reference compound] | lower Gst and transpiration values than non-transformed Col plants | more closed than those of non-transformed Col plants |  |  |  |  |  |  |  |  |  |  |  |  |
| B1 | lower Gst and transpiration values than non-transformed Col plants | more closed than those of non-transformed Col plants | did not differ significantly | not higher than in non-transformed plants | 6 | not higher than in non-transformed plants | 23 | lower Gst values than PYL4 OE plants | inhibited better than PYL4 | not more effective than PYL4 | 2-3 fold | did not find significant differences | improved | higher |
